Target: E-cadherin on human iPS cells (TkDN4-M) (human) (UniProt P12830)
Assay: cell-based or functional assay

Chain of E-cadherin on human iPS cells (TkDN4-M) (human) (P12830 155-882 limits assumed): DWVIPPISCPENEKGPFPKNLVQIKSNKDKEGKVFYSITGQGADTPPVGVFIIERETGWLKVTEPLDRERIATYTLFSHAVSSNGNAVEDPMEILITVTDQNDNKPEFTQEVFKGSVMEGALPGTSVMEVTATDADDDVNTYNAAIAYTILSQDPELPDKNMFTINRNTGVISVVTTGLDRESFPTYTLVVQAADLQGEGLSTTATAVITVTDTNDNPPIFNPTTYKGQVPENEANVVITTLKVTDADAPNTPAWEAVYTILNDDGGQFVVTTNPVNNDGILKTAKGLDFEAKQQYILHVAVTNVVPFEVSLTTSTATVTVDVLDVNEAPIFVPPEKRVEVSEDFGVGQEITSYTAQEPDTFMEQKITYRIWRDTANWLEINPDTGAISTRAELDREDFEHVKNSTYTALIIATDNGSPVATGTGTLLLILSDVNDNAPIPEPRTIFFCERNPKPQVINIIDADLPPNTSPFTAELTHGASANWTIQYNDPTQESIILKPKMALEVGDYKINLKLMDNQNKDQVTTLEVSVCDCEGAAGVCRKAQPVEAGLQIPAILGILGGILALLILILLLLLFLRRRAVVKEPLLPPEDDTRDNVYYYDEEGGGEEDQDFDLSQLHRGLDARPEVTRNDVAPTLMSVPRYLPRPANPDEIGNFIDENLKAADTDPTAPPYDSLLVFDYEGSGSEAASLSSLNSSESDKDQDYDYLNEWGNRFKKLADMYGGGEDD

B1: E-cadherin-Fc fusion protein (Fc fusion, not shown: a dimerising Fc or GST)
chain: DWVIPPISCPENEKGEFPKNLVQIKSNRDKETKVFYSITGQGADKPPVGVFIIERETGWLKVTQPLDREAIAKYILYSHAVSSNGEAVEDPMEIVITVTDQNDNRPEFTQPVFEGFVAEGAVPGTSVMKVSATDADDDVNTYNAAIAYTIVSQDPELPHKNMFTVNRDTGVISVLTSGLDRESYPTYTLVVQAADLQGEGLSTTAKAVITVKDINDNAPVFNPSTYQGQVPENEVNARIATLKVTDDDAPNTPAWKAVYTVVNDPDQQFVVVTDPTTNDGILKTAKGLDFEAKQQYILHVRVENEEPFEGSLVPSTATVTVDVVDVNEAPIFMPAERRVEVPEDFGVGQEITSYTAREPDTFMDQKITYRIWRDTANWLEINPETGAIFTRAEMDREDAEHVKNSTYVALIIATDDGSPIATGTGTLLLVLLDVNDNAPIPEPRNMQFCQRNPQPHIITILDPDLPPNTSPFTAELTHGASVNWTIEYNDAAQESLILQPRKDLEIGEYKIHLKLADNQNKDQVTTLDVHVCDCEGTVNNCMKAGIVAAGLQV
- diameter of hiPS cell aggregates on Day 5 of culture in Essential 8, E-cadherin-Fc 50 or 100 µg/ml for the first 48 hours: 500 µm
- sizes of hiPS cell aggregates 48 hours after the E-cadherin-Fc treatment, 5 µg/ml (without E-cadherin-Fc: 1000 to 3000 µm): 300 to 700 µm
- sizes of hiPS cell aggregates 48 hours after the E-cadherin-Fc treatment, 10 µg/ml: 200 to 400 µm
- sizes of hiPS cell aggregates 48 hours after the E-cadherin-Fc treatment, 20 µg/ml: 100 to 500 µm
- sizes of hiPS cell aggregates 48 hours after the E-cadherin-Fc treatment, 50 µg/ml: 100 to 300 µm
- sizes of hiPS cell aggregates 48 hours after the E-cadherin-Fc treatment, 100 µg/ml: 150 to 700 µm
